Square brackets hold non-standard residues; d marks the D form. Ends that are not written are not given here. Hyp = O=C(O)[C@@H]1C[C@@H](O)CN1
Columns and labels:
[1] = Dynamic light scattering of CMP functionalized gold NPs; assay type: physicochemical
Procedure: The thickness of the peptide layer on the gold NP surface was determined by dynamic light scattering (DLS) (FIG. 15). The peptide layer thicknesses of NP-1, NP-2 and NP-3 were 2.0 nm, 3.65 nm and 6.85 nm, respectively (Table 3).
Purified Cys-CMP (peptides 1′˜4′) (0.5 mL, 500 μM) was added to gold nanoparticle solution (5 mL, 17 nM), and the reaction mixture was incubated at room temperature for twenty-four hours. Excess CMPs were removed by repeated centrifugation and washing in deionized water.

[2] = Measurement of number of peptides per NP (passivation number); assay type: physicochemical
Procedure: The average number of CMPs on the NPs was determined by measuring the concentrations of free CMPs remaining in solution after the removal of the NPs from a series of incubation mixtures with varying CMP/NP ratios (FIG. 16 and Table 3).^36 The numbers of CMPs immobilized on the NP surfaces were 582, 444, and 399 for NP-1, NP-2, and NP-3, respectively. […] This may have been caused by surface anchoring of the chain ends that prohibited the staggered arrangement of the peptide chains required for the formation of triple helix.
Seven 10 μM Cys-CMP solutions with varying concentrations of citrate-stabilized gold NP (2˜14 nM) were prepared. The mixtures were incubated for 2 hours at 25° C. and the gold NPs were removed by centrifugation. The concentrations of free peptides remaining in the supernatant were determined from the UV-Vis absorbance at 215 nm with citrate ion background subtraction. The number of peptides per Au NP was calculated from the slope of the linear fit of the data points. (FIG. 17)

[3] = target: T1, type I collagen fibers (Bos taurus, UniProt P02453+P02465); experiment: TEM analysis of NP binding to reconstituted type I collagen fibers; set-up: species or system bovine; details: phosphate buffer at 25° C.
T1 construct: natural collagen (acid soluble, bovine type I); purchased Sigma
T1 sequence (P02453 162-1217 limits assumed): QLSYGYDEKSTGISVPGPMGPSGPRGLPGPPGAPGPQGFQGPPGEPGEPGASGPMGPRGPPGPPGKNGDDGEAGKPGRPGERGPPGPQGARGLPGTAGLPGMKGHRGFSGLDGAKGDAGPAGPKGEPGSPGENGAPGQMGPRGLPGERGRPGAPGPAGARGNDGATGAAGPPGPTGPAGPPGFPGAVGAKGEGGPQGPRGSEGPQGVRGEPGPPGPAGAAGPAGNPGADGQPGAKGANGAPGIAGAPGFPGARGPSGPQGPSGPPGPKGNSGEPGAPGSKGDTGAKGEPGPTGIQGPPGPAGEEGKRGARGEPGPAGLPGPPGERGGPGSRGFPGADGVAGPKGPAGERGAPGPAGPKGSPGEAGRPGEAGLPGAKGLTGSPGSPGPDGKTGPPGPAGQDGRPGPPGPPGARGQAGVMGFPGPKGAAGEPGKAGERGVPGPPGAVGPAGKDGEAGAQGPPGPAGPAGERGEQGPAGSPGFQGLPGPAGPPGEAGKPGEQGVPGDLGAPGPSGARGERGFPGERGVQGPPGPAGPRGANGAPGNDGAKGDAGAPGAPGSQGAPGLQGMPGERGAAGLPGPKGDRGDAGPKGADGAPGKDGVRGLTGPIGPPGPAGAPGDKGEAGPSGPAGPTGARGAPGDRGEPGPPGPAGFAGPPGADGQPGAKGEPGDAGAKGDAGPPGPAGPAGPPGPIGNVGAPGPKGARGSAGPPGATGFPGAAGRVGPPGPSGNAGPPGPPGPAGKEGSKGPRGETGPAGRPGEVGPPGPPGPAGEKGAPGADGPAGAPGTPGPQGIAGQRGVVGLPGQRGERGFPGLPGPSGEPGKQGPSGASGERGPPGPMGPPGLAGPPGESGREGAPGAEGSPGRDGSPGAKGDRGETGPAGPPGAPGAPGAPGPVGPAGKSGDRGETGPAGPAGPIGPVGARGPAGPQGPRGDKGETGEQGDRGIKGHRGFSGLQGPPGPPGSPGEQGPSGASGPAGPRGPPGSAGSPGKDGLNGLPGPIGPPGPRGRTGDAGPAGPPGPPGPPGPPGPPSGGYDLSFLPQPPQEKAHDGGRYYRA
T1 sequence (P02465 80-1117 limits assumed): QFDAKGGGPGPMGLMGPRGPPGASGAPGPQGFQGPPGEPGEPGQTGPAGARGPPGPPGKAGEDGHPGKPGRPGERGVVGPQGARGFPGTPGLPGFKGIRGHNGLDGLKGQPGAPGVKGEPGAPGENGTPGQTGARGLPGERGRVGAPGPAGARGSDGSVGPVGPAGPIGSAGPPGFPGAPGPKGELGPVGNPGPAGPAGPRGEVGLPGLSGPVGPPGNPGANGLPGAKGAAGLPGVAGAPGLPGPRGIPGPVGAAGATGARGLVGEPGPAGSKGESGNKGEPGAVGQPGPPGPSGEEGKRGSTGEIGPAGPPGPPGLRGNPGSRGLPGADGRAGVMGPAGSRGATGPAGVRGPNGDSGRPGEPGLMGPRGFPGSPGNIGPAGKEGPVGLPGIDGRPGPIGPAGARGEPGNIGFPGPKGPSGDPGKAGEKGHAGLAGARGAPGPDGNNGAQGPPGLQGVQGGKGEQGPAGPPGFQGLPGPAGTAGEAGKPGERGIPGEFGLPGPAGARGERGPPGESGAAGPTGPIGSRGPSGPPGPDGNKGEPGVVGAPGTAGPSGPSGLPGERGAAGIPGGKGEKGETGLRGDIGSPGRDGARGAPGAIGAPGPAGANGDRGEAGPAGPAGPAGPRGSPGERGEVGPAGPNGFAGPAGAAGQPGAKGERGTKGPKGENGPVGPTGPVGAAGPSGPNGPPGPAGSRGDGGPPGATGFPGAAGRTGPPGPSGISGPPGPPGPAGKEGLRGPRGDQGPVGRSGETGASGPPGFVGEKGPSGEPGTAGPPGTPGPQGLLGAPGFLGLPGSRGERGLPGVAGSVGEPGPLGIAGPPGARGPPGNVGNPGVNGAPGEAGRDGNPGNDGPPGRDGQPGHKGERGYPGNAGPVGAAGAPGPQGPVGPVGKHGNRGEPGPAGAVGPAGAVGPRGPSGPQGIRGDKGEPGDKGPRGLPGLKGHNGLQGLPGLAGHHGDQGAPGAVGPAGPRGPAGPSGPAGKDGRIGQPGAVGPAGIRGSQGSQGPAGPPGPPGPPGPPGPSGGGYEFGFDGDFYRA
Procedure: Moreover, NP-3 seemed to bind to defined locations within the gap regions along the fiber axis (FIG. 19C). Due to the large particle size and limitations of transmission electron microscopy resolution, the exact locations of these binding sites could not be determined. Twice as many NP-3 particles per unit area was found in the gap regions (dark bands) than on the overlap regions (light bands) of the collagen fibers. This difference was abolished at incubation temperatures above 40° C. (FIG. 20).
Collagen fibers were regenerated by mixing 0.5 mL of acid soluble type I collagen (1 mg/mL) in 50 mM acetic acid solution with 1 mL of sodium phosphate buffer (10 mM, pH 8.25). The mixture was incubated at room temperature for 12 hours.
A drop (8 μL) of type I collagen solution (0.3 mg/mL in PBS containing 1% BSA) was added to a holey carbon TEM grid. NP-3 solution (3 nM in PBS containing 1% BSA) was added to the grid and incubated for 5 minutes at room temperature or at 40° C., followed by washing with deionized water. The collagen fibers were stained with uranyl acetate (1%).

binding to type I collagen fibers [3]: little binding
Substance: NP-4: gold nanoparticle functionalized with scrambled peptide 4′ (CGPG[Hyp]P[Hyp]PPGPP[Hyp]G[Hyp][Hyp]P[Hyp]G[Hyp]GG; also: N-terminal Cys bound to gold nanoparticle surface)
Particle Size by DLS [1]: 16.2 ± 3.1 nm | Measured Peptide layer thickness ([1]; DLS): 1.5 nm | Number of peptides per NP [2]: 524 ± 59
